B1: LINE1-full (parent)
chain: UACGUAGGUGGUUUUCCCCUGAUAGUGCUAAGGGGGCCUGGAAGUUUGGACUGGGCAGAGCUCAACACAGCGUGGCAAAGUGGCUGUGGCUAGACUGCCUCUCUGGAUUCCUCGUCACUCAGCAGGGCAUCUCUGAGAGAAAUGCC

Variants of: B1
Test: self-cleavage, relative activity (ratio to wild type); higher = more cleavage; in vitro, sequencing; the parent is a self-cleaving ribozyme
For A79U U108C, the self-cleavage was 2.3.
G105U G144A showed a self-cleavage of 1.31.
For U52C G72U, the self-cleavage was 0.41.
For G8A G82A, the self-cleavage was 1.71.
With A31G U87A the self-cleavage was 0.13.
For G25A U46A, the self-cleavage was 1.42.
Work on U39C U109G yielded a self-cleavage of 0.74.
Variant U100C C118A has a self-cleavage of 2.
Work on A43G U104A yielded a self-cleavage of 0.42.
For C38U U115C, the self-cleavage was 1.6.
Variant U12G U130G has a self-cleavage of 0.77.
In the case of C19U A69G, the self-cleavage is reported as 0.77.
Work on A64C U134C yielded a self-cleavage of 0.61.
A78U A136C gave a self-cleavage of 2.73.
For A22G G139A, the self-cleavage was 1.82.
With U52A U132A the self-cleavage was 1.18.
U29C U96C showed a self-cleavage of 0.24.
U115A U134C gave a self-cleavage of 1.49.
Work on U115C G137A yielded a self-cleavage of 1.15.
For A50G A121C, the self-cleavage was 1.23.
A43G G114A showed a self-cleavage of 1.05.
In the case of G60A A141G, the self-cleavage is reported as 0.02.
In the case of A64U U119C, the self-cleavage is reported as 0.61.
In the case of G74A A140G, the self-cleavage is reported as 1.22.
U81C U134A showed a self-cleavage of 0.94.
A64G U119A gave a self-cleavage of 0.32.
Work on U14C A65G yielded a self-cleavage of 0.12.
U26C A65U gave a self-cleavage of 0.14.
U115A A121U showed a self-cleavage of 1.5.
For A124U A129G, the self-cleavage was 1.72.
Variant C95A U130C has a self-cleavage of 0.
For A121U A136U, the self-cleavage was 1.07.
With U1C U143C the self-cleavage was 1.18.
U13C U20A gave a self-cleavage of 1.07.
Work on U9C A92C yielded a self-cleavage of 0.48.
Work on C90G U102C yielded a self-cleavage of 0.01.
In the case of G97A A117U, the self-cleavage is reported as 0.17.
For A2U U47C, the self-cleavage was 0.43.
For U115C A124G, the self-cleavage was 1.13.
In the case of G7C U85A, the self-cleavage is reported as 0.2.
C131U U143G gave a self-cleavage of 0.59.
Work on U23A U52A yielded a self-cleavage of 1.37.
In the case of A64U G70A, the self-cleavage is reported as 0.07.
Work on A69G U119A yielded a self-cleavage of 0.65.
Work on U52C U62G yielded a self-cleavage of 0.
U45C G75A showed a self-cleavage of 1.13.
In the case of C38U U45C, the self-cleavage is reported as 1.39.
With U12C A77U the self-cleavage was 1.26.
In the case of A107G G126A, the self-cleavage is reported as 1.71.
In the case of A138U A142C, the self-cleavage is reported as 2.14.
G34U A64G gave a self-cleavage of 0.36.
G106C U108C showed a self-cleavage of 2.2.
G10U U62C gave a self-cleavage of 0.06.
In the case of A2U A67U, the self-cleavage is reported as 0.05.
For U47G U143C, the self-cleavage was 1.31.
With A79G A92U the self-cleavage was 0.66.
Work on U62A A136G yielded a self-cleavage of 0.03.
For G48A A59G, the self-cleavage was 0.03.
Variant U5C U26G has a self-cleavage of 0.47.
Variant U73A U134C has a self-cleavage of 1.46.
U5C A79G gave a self-cleavage of 1.15.
Work on A31G U45A yielded a self-cleavage of 0.85.
Work on A6G U115G yielded a self-cleavage of 2.04.
For U91A A129U, the self-cleavage was 0.86.
U12C C113A gave a self-cleavage of 0.64.
With G75A U104A the self-cleavage was 0.87.
Work on U112C A141U yielded a self-cleavage of 1.47.
Work on A57U G83U yielded a self-cleavage of 0.02.
A6U U119A showed a self-cleavage of 1.74.
For U15C G48A, the self-cleavage was 1.41.
A2G A67U showed a self-cleavage of 0.18.
Work on U26C U108C yielded a self-cleavage of 1.76.
C18U A69C gave a self-cleavage of 0.07.
Work on C17A U46C yielded a self-cleavage of 1.42.
G55A G125C gave a self-cleavage of 0.15.
With C101A A138G the self-cleavage was 1.36.
With U73C U96A the self-cleavage was 0.14.
In the case of G7A A57U, the self-cleavage is reported as 0.07.
In the case of U1A A141U, the self-cleavage is reported as 1.42.
For U26G U130C, the self-cleavage was 0.86.
With G35A U96C the self-cleavage was 0.09.
In the case of U91C A129U, the self-cleavage is reported as 0.82.
A24U U132C showed a self-cleavage of 1.07.
U20A C99A gave a self-cleavage of 0.74.
With A30U G34A the self-cleavage was 1.13.
For U5C A67U, the self-cleavage was 0.47.
In the case of G41A A69U, the self-cleavage is reported as 0.06.
Variant U46A U112A has a self-cleavage of 1.37.
U13G C99U showed a self-cleavage of 0.69.
Work on C51U A140G yielded a self-cleavage of 1.09.
A22G U108A showed a self-cleavage of 1.74.
Work on U23C U119A yielded a self-cleavage of 1.17.
In the case of U91C U102C, the self-cleavage is reported as 0.4.
With U102C C120A the self-cleavage was 2.26.
In the case of U39C C63U, the self-cleavage is reported as 0.25.
In the case of U85C G144U, the self-cleavage is reported as 0.19.
Work on U23C C63U yielded a self-cleavage of 0.35.
With C28G A65U the self-cleavage was 0.
With A121G G139A the self-cleavage was 1.06.
Variant U9C U143A has a self-cleavage of 1.28.
With U109C C110A the self-cleavage was 1.55.
With A67G U108C the self-cleavage was 0.6.
For G70A G80A, the self-cleavage was 0.48.
Variant A59U G114A has a self-cleavage of 0.54.
A6U C63G gave a self-cleavage of 0.19.
Variant G8A C120U has a self-cleavage of 2.87.
With U47C U134C the self-cleavage was 1.74.
In the case of U85G U109C, the self-cleavage is reported as 0.
Variant C3A U112C has a self-cleavage of 1.48.
Variant G44A C113U has a self-cleavage of 1.8.
Work on A42U A92G yielded a self-cleavage of 0.09.
U119A G144A showed a self-cleavage of 1.68.
A57G A67G showed a self-cleavage of 0.28.
Variant U1C C38U has a self-cleavage of 0.71.
Work on A6G A64G yielded a self-cleavage of 0.62.
Variant U13A A57U has a self-cleavage of 0.06.
U85A U91C showed a self-cleavage of 0.04.
Variant A65U C71U has a self-cleavage of 0.05.
With U85A A136G the self-cleavage was 0.11.
With U81G C113U the self-cleavage was 1.99.
For A107G G127A, the self-cleavage was 1.81.
For A59U C71U, the self-cleavage was 0.64.
For A42U U115C, the self-cleavage was 1.15.
With U47A C123U the self-cleavage was 0.7.
In the case of U39C U102A, the self-cleavage is reported as 1.03.
A57G A107G gave a self-cleavage of 1.01.
Work on A77G U130C yielded a self-cleavage of 2.56.
U73A C101U gave a self-cleavage of 2.61.
Variant U23C G122A has a self-cleavage of 1.61.
In the case of G93A U130C, the self-cleavage is reported as 0.02.
U13C G93A gave a self-cleavage of 0.17.
With G34A A142G the self-cleavage was 1.45.
In the case of U81A U112C, the self-cleavage is reported as 2.32.
Work on A65G A141G yielded a self-cleavage of 0.07.
U1C G4U gave a self-cleavage of 0.78.
With G32C A141G the self-cleavage was 1.99.
For G35A U45A, the self-cleavage was 1.28.
Variant A64C U73A has a self-cleavage of 0.32.
Work on C76A G106U yielded a self-cleavage of 1.2.
With A129G the self-cleavage was 1.52.
U12A A42U gave a self-cleavage of 1.75.
For G80U A124G, the self-cleavage was 1.69.
U5C G27A showed a self-cleavage of 0.17.
For A65U A138U, the self-cleavage was 0.16.
Work on A6G A142G yielded a self-cleavage of 1.01.
Work on U39G A92G yielded a self-cleavage of 0.
With C116U A124G the self-cleavage was 1.11.
In the case of U5G A141C, the self-cleavage is reported as 0.56.
Work on U1C U20A yielded a self-cleavage of 0.88.
Variant U9C U108C has a self-cleavage of 1.54.
For C145A, the self-cleavage was 0.95.
Work on C99U C133U yielded a self-cleavage of 0.34.
In the case of U91A U109C, the self-cleavage is reported as 0.65.
For U9A U73C, the self-cleavage was 0.94.
U9A C120U showed a self-cleavage of 1.12.
In the case of U52C A92U, the self-cleavage is reported as 0.52.
Work on U29A U134A yielded a self-cleavage of 1.19.
A50U C63A showed a self-cleavage of 0.
For A50C U87C, the self-cleavage was 0.13.
Variant A65G U100G has a self-cleavage of 0.
Work on A2G A59U yielded a self-cleavage of 0.8.
In the case of U87C U109C, the self-cleavage is reported as 0.27.
In the case of U5C U62C, the self-cleavage is reported as 0.07.
For U46A U115A, the self-cleavage was 1.26.
For U5C U85A, the self-cleavage was 0.21.
U12G U87C showed a self-cleavage of 0.16.
For U45G A92U, the self-cleavage was 0.61.

From the RNAGym collection of RNA variant scans (doi:10.7554/elife.90254)
